From PMC7435274

Legend:
[1] = molecular target: Cys^5-antag: secretin antagonist (c[E^16, K^20], Y^10, I^17, Cha^22, R^25)sec(5–27) with cysteine in position 5; experiment: cysteine trapping with 125I-labeled probe, SDS-PAGE autoradiography densitometry; conditions: SecR cysteine replacement mutants transiently expressed in COS-1 cells; nonreducing conditions; three experiments; read off a plot
[2] = molecular target: Cys^6-antag: secretin antagonist (c[E^16, K^20], Y^10, I^17, Cha^22, R^25)sec(5–27) with cysteine in position 6; experiment: as above; conditions: SecR cysteine replacement mutants transiently expressed in COS-1 cells; nonreducing conditions; three experiments; read off a plot

Substance | response (% of maximal signal within this loop) [1] | response (% of maximal signal within this loop) [2]
wild-type human secretin receptor, on COS-1 cells (from UniProt P47872) L370C | 19 | 43
wild-type human secretin receptor, on COS-1 cells (from UniProt P47872) A365C | 22 | 37
wild-type human secretin receptor, on COS-1 cells (from UniProt P47872) D364C | 22 | 33
wild-type human secretin receptor, on COS-1 cells (from UniProt P47872) Q369C | 14 | 41
wild-type human secretin receptor, on COS-1 cells (from UniProt P47872) F372C | 28 | 46
wild-type human secretin receptor, on COS-1 cells (from UniProt P47872) E373C | 28 | 62
wild-type human secretin receptor, on COS-1 cells (from UniProt P47872) E363C | 22 | 21
wild-type human secretin receptor, on COS-1 cells (from UniProt P47872) A359C | 88 | 98
wild-type human secretin receptor, on COS-1 cells (from UniProt P47872) F358C | 75 | 93
wild-type human secretin receptor, on COS-1 cells (from UniProt P47872) E367C | 4 | 12

The remaining lines, values ahead:

response (% of maximal signal within this loop) [1] | response (% of maximal signal within this loop) [2] | Substance
18 | 35 | wild-type human secretin receptor, on COS-1 cells (from UniProt P47872) M366C
35 | 88 | wild-type human secretin receptor, on COS-1 cells (from UniProt P47872) L374C
12 | 20 | wild-type human secretin receptor, on COS-1 cells (from UniProt P47872) I368C
63 | 70 | wild-type human secretin receptor, on COS-1 cells (from UniProt P47872) F360C
30 | 40 | wild-type human secretin receptor, on COS-1 cells (from UniProt P47872) P362C
22 | 40 | wild-type human secretin receptor, on COS-1 cells (from UniProt P47872) F371C
87 | 80 | wild-type human secretin receptor, on COS-1 cells (from UniProt P47872) S361C
